Target: HIV-1 BaL envelope protein spike (Env) on virions (HIV-1 BaL strain)
Experiment: cell-based or functional assay

Work on “MVN-DAVEI8 (microvirin-linker-MPER fusion)” yielded an EC50 of virolysis (% p24 release) of 780 nM.

From patent US20150111814A1
